Measured values published in IntAct's records for PubMed 20876572.

B1: Methylmalonic aciduria type A protein, mitochondrial (Homo sapiens), Q8IVH4 (parent)
chain: MPMLLPHPHQHFLKGLLRAPFRCYHFIFHSSTHLGSGIPCAQPFNSLGLHCTKWMLLSDGLKRKLCVQTTLKDHTEGLSDKEQRFVDKLYTGLIQGQRACLAEAITLVESTHSRKKELAQVLLQKVLLYHREQEQSNKGKPLAFRVGLSGPPGAGKSTFIEYFGKMLTERGHKLSVLAVDPSSCTSGGSLLGDKTRMTELSRDMNAYIRPSPTRGTLGGVTRTTNEAILLCEGAGYDIILIETVGVGQSEFAVADMVDMFVLLLPPAGGDELQGIKRGIIEMADLVAVTKSDGDLIVPARRIQAEYVSALKLLRKRSQVWKPKVIRISARSGEGISEMWDKMKDFQDLMLASGELTAKRRKQQKVWMWNLIQESVLEHFRTHPTVREQIPLLEQKVLIGALSPGLAADFLLKAFKSRD
partner: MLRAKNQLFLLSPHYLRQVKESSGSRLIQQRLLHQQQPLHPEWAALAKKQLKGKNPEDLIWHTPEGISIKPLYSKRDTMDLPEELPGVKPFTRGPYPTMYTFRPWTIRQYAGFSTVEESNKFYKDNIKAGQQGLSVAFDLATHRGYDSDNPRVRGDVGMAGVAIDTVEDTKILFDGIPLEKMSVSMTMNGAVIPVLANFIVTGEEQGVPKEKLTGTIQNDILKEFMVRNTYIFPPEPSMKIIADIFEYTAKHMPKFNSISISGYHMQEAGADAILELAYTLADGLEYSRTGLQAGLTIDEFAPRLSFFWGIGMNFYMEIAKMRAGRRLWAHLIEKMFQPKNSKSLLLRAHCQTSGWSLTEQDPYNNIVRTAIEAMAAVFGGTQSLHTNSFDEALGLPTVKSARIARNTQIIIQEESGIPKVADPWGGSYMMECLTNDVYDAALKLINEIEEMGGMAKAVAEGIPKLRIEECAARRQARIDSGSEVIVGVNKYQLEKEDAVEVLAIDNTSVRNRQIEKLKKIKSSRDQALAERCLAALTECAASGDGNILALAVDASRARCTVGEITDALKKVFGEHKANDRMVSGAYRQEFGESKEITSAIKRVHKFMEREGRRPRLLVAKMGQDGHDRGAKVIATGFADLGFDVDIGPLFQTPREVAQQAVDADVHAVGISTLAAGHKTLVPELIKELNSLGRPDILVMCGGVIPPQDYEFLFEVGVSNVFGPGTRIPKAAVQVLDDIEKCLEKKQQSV

Variants of: B1
Settings: with muta_human MMUT

effect of a mutation on the interaction	Variant
disrupting interaction strength	G188R
